Source: patent publication US20240002497A1 (Merck Sharp & Dohme, published 2024)
Numbering of substitutions follows the chain as printed. Numbers in names are those of the source.

B1: F010301596 (VHH)
VHH: EVQLVESGGGLVQAGGSLRLSCAASVRPFSTSAMGWFRQAPEKEREAVAGILWNGIVTYYADSVKGRFTISRDNAKNEVYLQMNKLKPEDTAVYYCALDRDYAGRSFSAYEYEYWGQGTLVTVSS
notes: G99A vs F0103362B08 (Kabat)
B2: F010301606 (VHH)
VHH: B1 VHH with A103G, Y110K
notes: Y100fK vs F0103362B08 (Kabat)
B3: F010301604 (VHH)
VHH: B1 VHH with A103G, R105Q
notes: R100aQ vs F0103362B08 (Kabat)
B4: F010301618 (VHH)
VHH: B1 VHH with A103G, Y114H
notes: Y102H vs F0103362B08 (Kabat)
B5: F010301622 (VHH)
VHH: B1 VHH with A103G, Y110D
notes: Y100fD vs F0103362B08 (Kabat)
B6: F010301598 (VHH)
VHH: B1 VHH with A103Q
notes: G99Q vs F0103362B08 (Kabat)
B7: F010301612 (VHH)
VHH: B1 VHH with A103G, Y110T
notes: Y100fT vs F0103362B08 (Kabat)
B8: F010301607 (VHH)
VHH: B1 VHH with A103G, Y110A
notes: Y100fA vs F0103362B08 (Kabat)
B9: F010301609 (VHH)
VHH: B1 VHH with A103G, Y110Q
notes: Y100fQ vs F0103362B08 (Kabat)
B10: F010301629 (VHH)
VHH: B1 VHH with G50S, A103G
notes: G50S vs F0103362B08 (Kabat)
B11: F010301621 (VHH)
VHH: B1 VHH with A103G, Y110G
notes: Y100fG vs F0103362B08 (Kabat)
B12: F010301617 (VHH)
VHH: B1 VHH with A103G, F107Q
notes: F100cQ vs F0103362B08 (Kabat)
B13: F010301619 (VHH)
VHH: B1 VHH with A103G, F107K
notes: F100cK vs F0103362B08 (Kabat)
B14: F010301627 (VHH)
VHH: B1 VHH with G50A, A103G
notes: G50A vs F0103362B08 (Kabat)
B15: F010301868 (VHH)
VHH: EVQLVESGGGVVQPGGSLRLSCATTSRAFIRDVFTGWYRRVPGKERELVARIYNGGNTNYADFAKGRFTISRDNAKKMVYLQMNSLRPEDTALYYCLFSGTINTGREYRSGDYWGQGTLVTVSS
notes: also called F0103464B09(L11V, S68T, T79Y, R81Q, S82aN, N82bS, K83R, G88A, V89L)
B16: F010301871 (VHH)
VHH: B15 VHH with T24A
notes: also called F0103464B09(L11V, T24A, S68T, T79Y, R81Q, S82aN, N82bS, K83R, AG88, V89L)
B17: F010301874 (VHH)
VHH: B15 VHH with V41A
notes: also called F0103464B09(L11V, V40A, S68T, T79Y, R81Q, S82aN, N82bS, K83R, G88A, V89L)
B18: F010301873 (VHH)
VHH: B15 VHH with R40Q
notes: also called F0103464B09(L11V, R39Q, S68T, T79Y, R81Q, S82aN, N82bS, K83R, G88A, V89L)
B19: F010301876 (VHH)
VHH: B15 VHH with A64V
notes: also called F0103464B09(L11V, A63V, S68T, T79Y, R81Q, S82aN, N82bS, K83R, G88A, V89L)
B20: F010301877 (VHH)
VHH: B15 VHH with K77N
notes: also called F0103464B09(L11V, S68T, K76N, T79Y, R81Q, S82aN, N82bS, K83R, G88A, V89L)
B21: F010301869 (VHH)
VHH: B15 VHH with M78T
notes: also called F0103464B09(L11V, S68T, M77T, T79Y, R81Q, S82aN, N82bS, K83R, G88A, V89L)
B22: F010301872 (VHH)
VHH: B15 VHH with T25S
notes: also called F0103464B09(L11V, T25S, S68T, T79Y, R81Q, S82aN, N82bS, K83R, G88A, V89L)
B23: F010301875 (VHH)
VHH: B15 VHH with F63S
notes: also called F0103464B09(L11V, F62S, S68T, T79Y, R81Q, S82aN, N82bS, K83R, G88A, V89L)
B24: F010301301 (VHH)
VHH: EVQLVESGGGLVQAGGSLRLSCDASGRILRTGYMRWHRQGAGKQREFVARITDDSATDYADSVKGRFTISRDNAKNTVYLQMNNLNPEDTAVYYCEALVTASVRGGSIHSGTYWGRGTLVTVSS
notes: vs 387G05: I31T
B25: F010301328 (VHH)
VHH: B24 VHH with T31I, T57V
notes: vs 387G05: T57V
B26: F010301309 (VHH)
VHH: B24 VHH with L29V, T31I
notes: vs 387G05: L29V
B27: F010301360 (VHH)
VHH: B24 VHH with T31I, A56T
notes: vs 387G05: A56T
B28: F010301409 (VHH)
VHH: B24 VHH with T31I, H109V
notes: vs 387G05: H100fV
B29: F010301313 (VHH)
VHH: B24 VHH with T31I, R35K
notes: vs 387G05: R35K
B30: F010301418 (VHH)
VHH: B24 VHH with T31I, Y113W
notes: vs 387G05: Y102W
B31: F010301425 (VHH)
VHH: B24 VHH with T31I, G105V
notes: vs 387G05: G100bV
B32: F010301304 (VHH)
VHH: B24 VHH with T31W
notes: vs 387G05: I31W
B33: F010301387 (VHH)
VHH: B24 VHH with T31I, V103A
notes: vs 387G05: V100A
B34: F010301416 (VHH)
VHH: B24 VHH with T31I, T112Q
notes: vs 387G05: T101Q
B35: F010301440 (VHH)
VHH: B24 VHH with T31I, G111T
notes: vs 387G05: G100hT
B36: F010301335 (VHH)
VHH: B24 VHH with T31I, R50V
notes: vs 387G05: R50V

Molecular target: T1, huNav1.7α + β1 (HEKa/β1) (human, UniProt Q15858 1-1988; Q07699 19-218)
T1 construct: also called HEKa/β1 huNav1.7α
Assay: binding FACS, HEKa/β1 cells
Method: (§1) Binding of the ISVDs to cell-expressed Nav1.7α was detected via murine anti-Flag (Sigma, catalog #F1804). Briefly, cells were resuspended in FACS buffer (PBS, 10% FBS, NaN₃) and transferred to a 96-well V-bottom plate at 1×10^5 cells/well. Purified FLAG3-tagged ISVD was diluted in FACS buffer and added to the cells for 30 minutes at 4° C. […] Prior to the read-out, the samples were resuspended in 1 μg/mL propidium iodide (Sigma, catalog #P4170) to exclude dead cells. Between each step, the cells were centrifuged for 5 minutes at 200 grams and washed with 100 μL/well FACS buffer.

| Binder | EC50 [nM] |
| --- | --- |
| B1 | 50 |
| B2 | 24 |
| B3 | 52 |
| B4 | 39 |
| B5 | 40 |
| B6 | 29 |
| B7 | 44 |
| B8 | 30 |
| B9 | 37 |
| B10 | 42 |
| B11 | 34 |
| B12 | 44 |
| B13 | 47 |
| B14 | 23 |

Molecular target: T2, huNav1.7α + β1-β2-β3 (human, UniProt Q15858 1-1988; A5A6L6 19-218; O60939 30-215; Q2KI11 23-215)
T2 construct: also called huNav1.7-beta1-beta2-beta3; huNav1.7-β1-β2-β3
Assay: binding FACS, CHO FlpIn
Procedure, shortened: (§2)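 Assessment used purified FLAG3-tagged ISVD incubated on cells for 30 minutes at 4° C in PBS containing 10% FBS and NaN₃, with cells washed between steps. Propidium iodide (1 μg/mL) staining removed dead cells from analysis.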

| Binder | Bmax [%] | EC50 [nM] |
| --- | --- | --- |
| B15 | 98 | 6.3 |
| B16 | 100 | 5.8 |
| B17 | 100 | 6.5 |
| B18 | 100 | 9 |
| B19 | 100 | 6.3 |
| B20 | 100 | 13 |
| B21 | 100 | 7.6 |
| B22 | 100 | 6.8 |
| B23 | 100 | 6.4 |

Molecular target: T3, rhNav1.7α + β1-β2-β3 (rhesus monkey)
T3 construct: also called rhNav1.7-beta1-beta2-beta3; rhNav1.7-β1-β2-β3
Assay: binding FACS, CHO FlpIn
Procedure, shortened: as §2

| Binder | EC50 [nM] |
| --- | --- |
| B15 | 62 |
| B16 | 37 |
| B17 | 55 |
| B18 | 110 |
| B19 | 110 |
| B20 | 96 |
| B21 | 96 |
| B22 | 57 |
| B23 | 52 |

Molecular target: T4, huNav1.7α+β1-β2-β3 (human, UniProt Q15858 1-1988; Q07699 19-218; O60939 30-215; Q9NY72 23-215)
T4 construct: 5N11S variant; also called huNav1.7-beta1-beta2-beta3; huNav1.7α+Navβ1-Navβ2-Navβ3
Assay: binding FACS, CHO FlpIn cells
Procedure, shortened: as §2

| Binder | EC50 [nM] | binding result |
| --- | --- | --- |
| B24 | 7.3 |  |
| B25 | 5 |  |
| B26 | 5.4 |  |
| B27 | 5.2 |  |
| B28 | 5.1 |  |
| B29 | 5.5 |  |
| B30 | 4.9 |  |
| B31 | 15 |  |
| B32 | 5.7 |  |
| B33 | 5.2 |  |
| B34 |  | no binding |
| B35 | 5.7 |  |
| B36 | 7.9 |  |

Molecular target: T5, huNav1.7α + β1-β2-β3 (human, UniProt Q15858 1-1988; A5A6L6 19-218; O60939 30-215; Q2KI11 23-215)
T5 construct: Cell line (CHO FlpIn, HEK FlpIn, transient HEK293T) is named under assay; also called huNav1.7-beta1-beta2-beta3; human Nav1.7α with Navβ1, Navβ2 and Navβ3
Assay: binding FACS, CHO FlpIn cells
Procedure, shortened: as §2

| Binder | EC50 [nM] |
| --- | --- |
| B1 | 140 |
| B2 | 65 |
| B3 | 190 |
| B4 | 190 |
| B5 | 170 |
| B6 | 89 |
| B7 | 170 |
| B8 | 90 |
| B9 | 190 |
| B10 | 120 |
| B11 | 150 |
| B12 | 170 |
| B13 | 180 |
| B14 | 76 |

Molecular target: T6, muNav1.7α (murine, UniProt Q62205 1-1984)
T6 construct: HEK JmpIn cells; also called murine Nav1.7α
Assay: binding FACS, HEK JmpIn
Method: as §1

| Binder | EC50 [nM] |
| --- | --- |
| B15 | 11 |
| B16 | 24 |
| B17 | 18 |
| B18 | 42 |
| B19 | 23 |
| B20 | 39 |
| B21 | 17 |
| B22 | 21 |
| B23 | 14 |
